From patent publication US20190233526A1

Biological target: human C-C motif chemokine receptor 4 (CCR4) on tumor cell lines (human) (UniProt P51679)
Assay: cell-based or functional assay

Chain of UniProt P51679 (P51679 whole entry): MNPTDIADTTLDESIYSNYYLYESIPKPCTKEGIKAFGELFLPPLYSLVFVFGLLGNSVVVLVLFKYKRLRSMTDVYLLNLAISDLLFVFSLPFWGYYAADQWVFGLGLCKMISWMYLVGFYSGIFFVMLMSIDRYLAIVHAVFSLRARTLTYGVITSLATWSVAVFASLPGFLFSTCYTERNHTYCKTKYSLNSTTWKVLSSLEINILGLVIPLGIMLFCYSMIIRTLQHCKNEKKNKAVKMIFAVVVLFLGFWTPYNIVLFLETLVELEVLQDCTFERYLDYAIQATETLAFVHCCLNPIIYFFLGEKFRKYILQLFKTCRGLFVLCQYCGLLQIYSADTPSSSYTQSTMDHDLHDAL

**Q.** How did the GM-CSF fold-induction, CAR T cells co-cultured with irradiated ATL55T cells for 24 hours turn out when “CCR4 CAR (chimeric antigen receptor with mAb2-3 scFv, CD8 hinge and transmembrane domain, 4-1BB signaling domain and CD3 zeta signaling domain), expressed on transduced human CD3+ T cells” was run?
**A.** 5 fold

**Q.** What about the IFN-gamma fold-induction, CAR T cells co-cultured with irradiated ATL55T cells for 24 hours of the same substance?
**A.** 2 fold

**Q.** What about the IL-4 fold-induction, CAR T cells co-cultured with irradiated ATL55T cells for 24 hours of the same substance?
**A.** 9 fold

**Q.** And the IL-5 fold-induction, CAR T cells co-cultured with irradiated ATL55T cells for 24 hours?
**A.** 4 fold

**Q.** And the IL-8 fold-induction, CAR T cells co-cultured with irradiated ATL55T cells for 24 hours?
**A.** 4 fold

**Q.** What about the IL-13 fold-induction, CAR T cells co-cultured with irradiated ATL55T cells for 24 hours of the same substance?
**A.** 3 fold

**Q.** And the MDC fold-induction, CAR T cells co-cultured with irradiated ATL55T cells for 24 hours?
**A.** 2 fold

**Q.** What about the TNF-alpha fold-induction, CAR T cells co-cultured with irradiated ATL55T cells for 24 hours of the same substance?
**A.** 8 fold

**Q.** And the TNF-beta fold-induction, CAR T cells co-cultured with irradiated ATL55T cells for 24 hours?
**A.** 5 fold

**Q.** What about the [3H]thymidine incorporation of CAR T cells co-cultured with irradiated CCR4-bearing target cells of the same substance?
**A.** > 3 fold

**Q.** What about the increase of MIP-1α level on co-culture with target cells of the same substance?
**A.** 36%

**Q.** What about the increase of MP-10 (so in the source) level on co-culture with target cells of the same substance?
**A.** 25%
